Patent US20240319212A1, “METHOD OF MEASURING THE ENDOCYTIC VITAMIN D STATUS” (Immundiagnostik AG, priority 2018, published 2024)

How the values were obtained:
[1] = biological target: complex of vitamin D binding protein with 25-hydroxyvitamin D3 (DBP:25(OH)D3) (human) (UniProt P02774); experiment: MST, NT-647-labelled DBP (50 nM) with VD3 (50 nM), megalin fragment titrated
[2] = biological target: vitamin D binding protein (DBP) alone, without added vitamin D metabolite (human) (UniProt P02774); experiment: MST, NT-647-labelled DBP (50 nM), megalin fragment titrated, absence of 25-OH vitamin D3; microscale thermophoresis; NT-647-labelled DBP, purified soluble M1 titrated 0.488-1000 nmol/L; absence of 25-OH vitamin D3
Chain of vitamin D binding protein (DBP) alone, without added vitamin D metabolite (human) (P02774 17-474 limits assumed): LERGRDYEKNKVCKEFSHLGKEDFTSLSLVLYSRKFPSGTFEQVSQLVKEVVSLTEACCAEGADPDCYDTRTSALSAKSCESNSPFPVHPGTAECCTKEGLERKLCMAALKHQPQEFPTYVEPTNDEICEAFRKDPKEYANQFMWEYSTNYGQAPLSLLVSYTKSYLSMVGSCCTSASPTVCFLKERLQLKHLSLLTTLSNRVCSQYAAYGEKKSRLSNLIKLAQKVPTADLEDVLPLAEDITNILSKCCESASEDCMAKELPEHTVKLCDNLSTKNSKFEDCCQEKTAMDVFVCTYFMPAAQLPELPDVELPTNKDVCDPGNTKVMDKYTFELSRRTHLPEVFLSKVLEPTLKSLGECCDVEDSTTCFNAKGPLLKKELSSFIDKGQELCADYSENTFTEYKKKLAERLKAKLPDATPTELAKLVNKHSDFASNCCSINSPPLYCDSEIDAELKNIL

Chain of complex of vitamin D binding protein with 25-hydroxyvitamin D3 (DBP:25(OH)D3) (human) (P02774 17-474 limits assumed, one chain of several): as the sequence (P02774 17-474 limits assumed) above

Kd [1]: 45.6 nM
Kd [2]: 442 nM
Substance: soluble recombinant megalin M1 fragment (amino acids 26 to 386 of human LRP2/megalin, C-terminal 6x His tag) (from UniProt P98164 26-386) (receptor)
